Laboratory results: the supplement of paper PMC7125110
± gives the standard error. This sample holds only a part of the variants without activity.

B1: glmS ribozyme (parent)
chain: AUAAAAGCGCCAGAACUACAGAAAUGUAGUUGACGAGGAGGAGGUUUAUCGAAUUUUCGGCGGAUGCCUCCAAA

Legend:
Settings in all cases: with glucosamine-6-phosphate
[1] = variants of: B1; experiment: self-cleavage kobs at 40 uM GlcN6P; higher = faster cleavage; RNA array
In short: (§1)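 E. coli RNA polymerase transcribed barcoded ribozyme variants in situ on sequenced MiSeq chips, which were tracked via a hybridised Cy3 probe at 37 °C. Tiles were imaged over ~14 h after glucosamine-6-phosphate (40 μM to 10 mM) in HEPES/KCl/Mg(OAc)2 buffer was flowed in. Normalised per-tile medians were fit to one- or two-exponential decays for kobs, and kcat and KM came from weighted Michaelis–Menten fits.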

[2] = variants of: B1; experiment: self-cleavage kobs at 160 uM GlcN6P; higher = faster cleavage; RNA array
In short: as §1

[3] = variants of: B1; experiment: self-cleavage kobs at 640 uM GlcN6P; higher = faster cleavage; RNA array
In short: as §1

[4] = variants of: B1; experiment: self-cleavage kobs at 2500 uM GlcN6P; higher = faster cleavage; RNA array
In short: as §1

[5] = variants of: B1; experiment: self-cleavage kobs at 10000 uM GlcN6P; higher = faster cleavage; RNA array
In short: as §1

Variant	self-cleavage kobs at 40 uM GlcN6P [1]	self-cleavage kobs at 160 uM GlcN6P [2]	self-cleavage kobs at 640 uM GlcN6P [3]	self-cleavage kobs at 2500 uM GlcN6P [4]	self-cleavage kobs at 10000 uM GlcN6P [5]
G41C C68G	< 1e-05 s⁻¹	< 1e-05 s⁻¹	< 1e-05 s⁻¹	< 1e-05 s⁻¹	< 1e-05 s⁻¹
A1C U56G	0.000433 ± 9.4e-05 s⁻¹	–	–	–	0.0185 ± 0.0058 s⁻¹
G37U A42G	< 1e-05 s⁻¹	–	< 1e-05 s⁻¹	< 1e-05 s⁻¹	–
C11G G44U A48C C50A G59U G62C	< 1e-05 s⁻¹	–	–	–	< 1e-05 s⁻¹
A36G G51A A52G	< 1e-05 s⁻¹	–	–	–	–
G38C G41U G60C	< 1e-05 s⁻¹	–	–	–	–
A12C U49C U56G C58G	< 1e-05 s⁻¹	–	< 1e-05 s⁻¹	–	< 1e-05 s⁻¹
U46A G60C	< 1e-05 s⁻¹	< 1e-05 s⁻¹	< 1e-05 s⁻¹	< 1e-05 s⁻¹	< 1e-05 s⁻¹
A6G G62C	< 1e-05 s⁻¹	< 1e-05 s⁻¹	< 1e-05 s⁻¹	< 1e-05 s⁻¹	< 1e-05 s⁻¹
G62C G63A	< 1e-05 s⁻¹	< 1e-05 s⁻¹	< 1e-05 s⁻¹	< 1e-05 s⁻¹	–
G38C A48U U65A	< 1e-05 s⁻¹	–	–	–	–
C34U C50G	5.12e-05 ± 1.3e-05 s⁻¹	0.000184 ± 3.2e-05 s⁻¹	0.000831 ± 0.00035 s⁻¹	5.23e-05 ± 2.2e-05 s⁻¹	–
A14G A33U G43A	< 1e-05 s⁻¹	–	–	–	< 1e-05 s⁻¹
G35U C68G	0.000484 ± 0.00019 s⁻¹	–	–	–	–
U46G A48U C68U	< 1e-05 s⁻¹	–	–	–	–
C10G G43A A48G U54G C58A A64U	< 1e-05 s⁻¹	–	< 1e-05 s⁻¹	< 1e-05 s⁻¹	< 1e-05 s⁻¹
G32C A39G	< 1e-05 s⁻¹	< 1e-05 s⁻¹	–	3.52e-05 ± 1.2e-05 s⁻¹	0.000101 ± 1.4e-05 s⁻¹
A12G A48G G63A A64G	< 1e-05 s⁻¹	–	–	–	< 1e-05 s⁻¹
C16A G44C	< 1e-05 s⁻¹	< 1e-05 s⁻¹	< 1e-05 s⁻¹	–	< 1e-05 s⁻¹
A24C A48C G62U G63U C70G	< 1e-05 s⁻¹	–	–	–	< 1e-05 s⁻¹
U45G C50A	< 1e-05 s⁻¹	–	–	–	–
G38A U46G	< 1e-05 s⁻¹	< 1e-05 s⁻¹	< 1e-05 s⁻¹	< 1e-05 s⁻¹	< 1e-05 s⁻¹
G59A A64U	< 1e-05 s⁻¹	–	–	< 1e-05 s⁻¹	< 1e-05 s⁻¹
U31G C34U G59A	< 1e-05 s⁻¹	–	< 1e-05 s⁻¹	< 1e-05 s⁻¹	< 1e-05 s⁻¹

Variant	self-cleavage kobs at 40 uM GlcN6P [1]	self-cleavage kobs at 160 uM GlcN6P [2]	self-cleavage kobs at 640 uM GlcN6P [3]	self-cleavage kobs at 2500 uM GlcN6P [4]	self-cleavage kobs at 10000 uM GlcN6P [5]
U31C G35U A39C G44U U55A	< 1e-05 s⁻¹	< 1e-05 s⁻¹	< 1e-05 s⁻¹	< 1e-05 s⁻¹	< 1e-05 s⁻¹
C10A G37C G38A A64U U65C	< 1e-05 s⁻¹	–	–	< 1e-05 s⁻¹	–
A48U G59A G66U	< 1e-05 s⁻¹	< 1e-05 s⁻¹	< 1e-05 s⁻¹	–	< 1e-05 s⁻¹
G35U U45A U57C C67A C68A	< 1e-05 s⁻¹	–	–	–	< 1e-05 s⁻¹
C34U U57C	< 1e-05 s⁻¹	< 1e-05 s⁻¹	< 1e-05 s⁻¹	< 1e-05 s⁻¹	< 1e-05 s⁻¹
A6G C8U U54G C68G	0.000149 ± 5.2e-05 s⁻¹	–	0.000705 ± 0.00028 s⁻¹	–	7.88e-05 ± 2.2e-05 s⁻¹
U47G G51A	< 1e-05 s⁻¹	–	–	–	–
A53U U54C C67A	0.000138 ± 2.9e-05 s⁻¹	–	–	–	0.00429 ± 0.0016 s⁻¹
A14C U45G A52C G63A	< 1e-05 s⁻¹	–	–	–	–
C11G A14G G63U C70A	9.38e-05 ± 2.9e-05 s⁻¹	–	–	0.000123 ± 5.4e-05 s⁻¹	–
G40U A52C	< 1e-05 s⁻¹	< 1e-05 s⁻¹	–	–	–
C11A U45C	< 1e-05 s⁻¹	–	< 1e-05 s⁻¹	–	–
A42U G63A	< 1e-05 s⁻¹	–	< 1e-05 s⁻¹	–	< 1e-05 s⁻¹
C8G U31C G35C	< 1e-05 s⁻¹	–	–	–	< 1e-05 s⁻¹
C8G U55A	< 1e-05 s⁻¹	–	< 1e-05 s⁻¹	< 1e-05 s⁻¹	< 1e-05 s⁻¹
G35U G60A	< 1e-05 s⁻¹	< 1e-05 s⁻¹	< 1e-05 s⁻¹	< 1e-05 s⁻¹	< 1e-05 s⁻¹
C11G C34A	< 1e-05 s⁻¹	< 1e-05 s⁻¹	–	< 1e-05 s⁻¹	< 1e-05 s⁻¹
A6U A15U G63A C70U	< 1e-05 s⁻¹	–	–	–	–
A6U G9U	< 1e-05 s⁻¹	< 1e-05 s⁻¹	< 1e-05 s⁻¹	< 1e-05 s⁻¹	–
U31A G51A U56A C58U G63U U65G	< 1e-05 s⁻¹	–	–	–	–
A6C A36C	< 1e-05 s⁻¹	< 1e-05 s⁻¹	–	–	< 1e-05 s⁻¹
C8G G13U	< 1e-05 s⁻¹	< 1e-05 s⁻¹	< 1e-05 s⁻¹	< 1e-05 s⁻¹	< 1e-05 s⁻¹
G9A G35U	< 1e-05 s⁻¹	< 1e-05 s⁻¹	< 1e-05 s⁻¹	–	–
G9U G29A U30A C67U	< 1e-05 s⁻¹	–	–	–	–

Variant	self-cleavage kobs at 40 uM GlcN6P [1]	self-cleavage kobs at 160 uM GlcN6P [2]	self-cleavage kobs at 640 uM GlcN6P [3]	self-cleavage kobs at 2500 uM GlcN6P [4]	self-cleavage kobs at 10000 uM GlcN6P [5]
A36G A42G A52G	< 1e-05 s⁻¹	–	< 1e-05 s⁻¹	< 1e-05 s⁻¹	–
A36U G40A	< 1e-05 s⁻¹	–	–	–	< 1e-05 s⁻¹
A12G C50A	< 1e-05 s⁻¹	–	–	–	< 1e-05 s⁻¹
C10U G40U U49A	< 1e-05 s⁻¹	–	< 1e-05 s⁻¹	–	–
C10A G51C	< 1e-05 s⁻¹	–	< 1e-05 s⁻¹	–	< 1e-05 s⁻¹
G7U C8U	< 1e-05 s⁻¹	< 1e-05 s⁻¹	< 1e-05 s⁻¹	< 1e-05 s⁻¹	< 1e-05 s⁻¹
G44A G59C	< 1e-05 s⁻¹	< 1e-05 s⁻¹	< 1e-05 s⁻¹	< 1e-05 s⁻¹	< 1e-05 s⁻¹
U57C G59U C61U	< 1e-05 s⁻¹	–	–	–	< 1e-05 s⁻¹
G7A C11G U69A	0.000101 ± 2.8e-05 s⁻¹	–	–	–	–
G13C C61A C71U	< 1e-05 s⁻¹	–	–	–	–
G41U C50A	< 1e-05 s⁻¹	< 1e-05 s⁻¹	< 1e-05 s⁻¹	< 1e-05 s⁻¹	< 1e-05 s⁻¹
C34U G37C G51A C68A	< 1e-05 s⁻¹	–	–	–	–
A6C G7U	< 1e-05 s⁻¹	< 1e-05 s⁻¹	< 1e-05 s⁻¹	< 1e-05 s⁻¹	< 1e-05 s⁻¹
G40U C68A	< 1e-05 s⁻¹	< 1e-05 s⁻¹	< 1e-05 s⁻¹	< 1e-05 s⁻¹	< 1e-05 s⁻¹
U30G G41U C68A	< 1e-05 s⁻¹	–	–	–	< 1e-05 s⁻¹
A6C G7U G35A C58U G60A	< 1e-05 s⁻¹	–	< 1e-05 s⁻¹	–	–
G37A G51A	< 1e-05 s⁻¹	–	< 1e-05 s⁻¹	–	< 1e-05 s⁻¹
A12U A53G	0.00255 ± 0.00025 s⁻¹	0.00496 ± 0.00086 s⁻¹	0.0163 ± 0.0025 s⁻¹	–	0.125 ± 0.023 s⁻¹
G35A U56C A64U	< 1e-05 s⁻¹	–	< 1e-05 s⁻¹	–	< 1e-05 s⁻¹
C10A U31A C58G C67A	4.23e-05 ± 1.8e-05 s⁻¹	–	0.00013 ± 3.4e-05 s⁻¹	0.000317 ± 0.00016 s⁻¹	3.62e-05 ± 1.5e-05 s⁻¹
G29C G43U C67U	< 1e-05 s⁻¹	–	–	–	< 1e-05 s⁻¹
C50G A52C U69A	8.7e-05 ± 2.7e-05 s⁻¹	–	–	–	4.8e-05 ± 1.6e-05 s⁻¹
U30A U49C	< 1e-05 s⁻¹	< 1e-05 s⁻¹	< 1e-05 s⁻¹	< 1e-05 s⁻¹	< 1e-05 s⁻¹
C11G G38C	< 1e-05 s⁻¹	–	< 1e-05 s⁻¹	< 1e-05 s⁻¹	–

Variant	self-cleavage kobs at 40 uM GlcN6P [1]	self-cleavage kobs at 160 uM GlcN6P [2]	self-cleavage kobs at 640 uM GlcN6P [3]	self-cleavage kobs at 2500 uM GlcN6P [4]	self-cleavage kobs at 10000 uM GlcN6P [5]
C10G C11U	< 1e-05 s⁻¹	–	< 1e-05 s⁻¹	–	–
A12G A33G G37U	< 1e-05 s⁻¹	–	–	–	< 1e-05 s⁻¹
G7C G62U	< 1e-05 s⁻¹	–	–	< 1e-05 s⁻¹	< 1e-05 s⁻¹
A6U U30C U56C	< 1e-05 s⁻¹	–	–	–	–
C10G G43U U65A	< 1e-05 s⁻¹	–	–	< 1e-05 s⁻¹	–
G40A G60A U69A	< 1e-05 s⁻¹	–	–	–	–
G38A C50U A53G G62U	< 1e-05 s⁻¹	–	–	–	–
U31G G38U C61U C71U	< 1e-05 s⁻¹	–	–	–	–
G35C U49C	< 1e-05 s⁻¹	–	< 1e-05 s⁻¹	–	–
G29C U30C	< 1e-05 s⁻¹	–	< 1e-05 s⁻¹	–	–
G9C G43U G44U C58A C71A	< 1e-05 s⁻¹	–	–	–	–
A15U U31C C50G	5.26e-05 ± 2.5e-05 s⁻¹	–	–	–	–
G37A A39C G40U	< 1e-05 s⁻¹	–	–	–	4.03e-05 ± 1e-05 s⁻¹
U31A G43U	< 1e-05 s⁻¹	< 1e-05 s⁻¹	–	–	–
G51U G63C	< 1e-05 s⁻¹	–	< 1e-05 s⁻¹	< 1e-05 s⁻¹	< 1e-05 s⁻¹
C34A A64U	< 1e-05 s⁻¹	< 1e-05 s⁻¹	< 1e-05 s⁻¹	–	< 1e-05 s⁻¹
G9C G41C	< 1e-05 s⁻¹	< 1e-05 s⁻¹	< 1e-05 s⁻¹	< 1e-05 s⁻¹	< 1e-05 s⁻¹
C10G C11G G63C	< 1e-05 s⁻¹	–	–	–	< 1e-05 s⁻¹
A36U G44C U47G	< 1e-05 s⁻¹	–	–	–	< 1e-05 s⁻¹
G43A C67G C68G	5.46e-05 ± 1.7e-05 s⁻¹	–	0.000155 ± 4.7e-05 s⁻¹	6.83e-05 ± 1.7e-05 s⁻¹	7.38e-05 ± 1.4e-05 s⁻¹
A15C A36U	< 1e-05 s⁻¹	–	–	–	< 1e-05 s⁻¹
A39U G62U	< 1e-05 s⁻¹	–	–	–	< 1e-05 s⁻¹
